Laboratory results taken from paper PMC2839085.

Molecular target: TmMre11 (TM1635) truncated construct, residues 1-324 (Thermotoga maritima) (UniProt Q9X1X0)
Experiment: crystal structure

- stoichiometry N: 2
Substance: TmMre11 (TM1635) truncated construct, residues 1-324 (from UniProt Q9X1X0 1-324) (domain or fragment)
